Measurements published in patent US20180125973A1 (AstraZeneca / MedImmune, published 2018).

Key:
[1] = target: T1, Human CD73 on cells (human, UniProt P21589 27-549); assay: cell-based or functional assay
T1 sequence: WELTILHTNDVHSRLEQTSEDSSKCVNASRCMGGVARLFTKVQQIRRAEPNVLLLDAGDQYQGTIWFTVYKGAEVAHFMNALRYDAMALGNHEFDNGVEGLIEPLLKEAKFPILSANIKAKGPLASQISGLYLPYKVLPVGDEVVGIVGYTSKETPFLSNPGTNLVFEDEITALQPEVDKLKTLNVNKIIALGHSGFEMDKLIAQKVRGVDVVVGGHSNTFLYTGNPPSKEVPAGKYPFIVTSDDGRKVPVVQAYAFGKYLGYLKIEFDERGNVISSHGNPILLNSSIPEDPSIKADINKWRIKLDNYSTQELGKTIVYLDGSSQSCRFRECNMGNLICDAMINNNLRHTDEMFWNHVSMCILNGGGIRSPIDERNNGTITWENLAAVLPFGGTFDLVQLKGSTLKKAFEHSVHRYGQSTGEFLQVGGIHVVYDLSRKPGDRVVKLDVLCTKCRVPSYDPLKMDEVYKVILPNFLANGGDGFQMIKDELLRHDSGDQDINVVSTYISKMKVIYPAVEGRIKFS

[2] = target: T2, Murine CD73 on cells (murine, UniProt Q61503 29-551); assay: cell-based or functional assay
T2 sequence (looked up): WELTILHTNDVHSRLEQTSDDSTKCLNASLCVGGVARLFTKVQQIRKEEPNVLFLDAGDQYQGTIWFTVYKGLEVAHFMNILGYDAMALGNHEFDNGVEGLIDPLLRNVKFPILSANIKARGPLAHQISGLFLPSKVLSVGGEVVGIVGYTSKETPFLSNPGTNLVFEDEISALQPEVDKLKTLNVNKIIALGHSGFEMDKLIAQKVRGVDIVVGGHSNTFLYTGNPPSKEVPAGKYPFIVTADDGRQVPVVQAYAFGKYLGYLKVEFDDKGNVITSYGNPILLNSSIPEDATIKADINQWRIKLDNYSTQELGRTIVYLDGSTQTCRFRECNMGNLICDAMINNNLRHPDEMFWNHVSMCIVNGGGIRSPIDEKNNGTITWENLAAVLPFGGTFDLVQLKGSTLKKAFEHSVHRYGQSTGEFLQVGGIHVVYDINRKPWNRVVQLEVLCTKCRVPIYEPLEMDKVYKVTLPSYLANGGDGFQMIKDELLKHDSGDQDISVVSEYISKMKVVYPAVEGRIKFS

B1: MEDI9447 (antibody, human IgG1, lambda, V domains shown)
VH: EVQLLESGGGLVQPGGSLRLSCAASGFTFSSYAYSWVRQAPGKGLEWVSAISGSGGRTYYADSVKGRFTISRDNSKNTLYLQMNSLRAEDTAVYYCARLGYGRVDEWGRGTLVTVSS
VL: QSVLTQPPSASGTPGQRVTISCSGSLSNIGRNPVNWYQQLPGTAPKLLIYLDNLRLSGVPDRFSGSKSGTSASLAISGLQSEDEADYYCATWDDSHPGWTFGGGTKLTVLG
Q: Which results are given for B1?
A: Antibody-mediated internalization of cytotoxic FabZAP reagent into MDA-MB-231 cells, EC50 [1]: 0.0035 nM; Antibody-mediated internalization of cytotoxic FabZAP reagent into 4T1 cells, EC50 [2]: 0.0185 nM
